Data reported in the supplement of paper PMC10567573.

B1: TRIM55 (parent)
chain: YLPTRGGTTMASGGRFRCPSCRHE
B2: ELF3 (parent)
chain: RLVYKFGKNSSGWKEEEVLQSRN

Variants of: B1
Experiment: protein stability index of a GFP-peptide fusion (GPS, HEK-293T) (PSI 1-6); higher = more stable
Details: c terminus: a fixed tail appended
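Also: lentivirally expressed fusions sorted by FACS into six bins by GFP to DsRed ratio, PSI derived from sequencing read proportions per bin multiplied by bin number.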

Protein stability index: each site, then its substitutions
T9: N 2.01 | F 2.12 | E 2.66 | G 1.26 | R 1.82 | P 2.49 | M 1.36 | A 2.77 | Q 1.11
F16: K 2.01 | M 1.74 | N 2.33 | T 2.98 | S 3.94 | V 2.71 | A 3.43 | Y 1.57 | C 3.06
G14: M 2.76 | N 2.42 | Y 1.69 | C 3.76 | F 2.04 | K 1.83 | L 1.29 | A 2.23 | T 2.89 | Q 1.26
R15: D 2.78 | C 2.02 | L 1.81 | H 1.39 | M 1.31 | P 1.49 | E 2.35 | T 2.53 | K 2.05 | V 1.24 | S 1.65 | Q 1.58 | Y 1.44 | F 2.76 | A 2.02
G6: I 1.04 | L 1.76 | S 1.97 | E 1.67 | Y 1.37 | P 1.78 | C 1.84 | N 1.21 | W 1.46 | D 2.45 | Q 2.15
M10: W 2.58 | N 1.96 | A 2.85 | G 2.61 | E 1.97 | T 4.08 | K 1.11 | I 2.27 | Y 1.89 | Q 2.03 | P 2.5 | V 1.65 | C 2.91
L2: T 1.38 | K 1.32 | H 2.78 | W 2.7 | Q 1.02 | E 2.98 | F 2.46 | M 1.93 | R 1.77 | P 1.71 | I 2.22
Y1: H 2.79 | Q 2.45 | D 2.15 | S 3.15 | M 1.67 | N 3.07 | G 3.18 | W 2.99 | I 2.52 | V 1.89 | A 2.59 | C 2.14 | L 2.06 | K 1.46 | F 2.51
T8: R 1.94 | K 2.1 | L 4.11 | C 3.19 | N 1.98 | S 1.14 | Y 4.26 | H 2.88 | A 1.11 | V 2.03 | M 4.36 | D 1.36
P3: D 1.04 | E 1 | N 2.29 | I 1 | L 1.32 | R 3.49 | V 1.97
R5: I 1.98 | G 2 | D 1.73 | N 1.44 | V 1.51 | A 1.87 | E 2.4 | Q 2.28 | H 1.32 | W 3.96
A11: H 1.83 | F 1.98 | T 2.46 | Y 3.34 | N 1.65 | E 2 | K 1.36 | M 1.18 | I 1.05 | R 1.37 | Q 1.96
G7: P 2.91 | K 1.01 | Q 2.24 | F 1.26 | E 1.75 | V 1.37 | T 2.33 | W 1.5 | L 1.34 | Y 2.17 | A 1.64 | I 1.45 | R 1.12
R17: I 1.69 | C 1.6 | H 2.56 | S 2.9 | N 2.24 | L 2.6 | K 1.48
T4: H 1.19 | L 2.73 | S 2.1 | W 1 | P 1.36 | V 4.07 | Q 1.7 | C 3.98 | Y 1.24 | M 1.26 | E 3.35
G13: R 1 | T 1.88 | F 2.39 | W 1.12 | E 2.25 | Q 1.51 | H 2.62 | N 1.89 | I 1.33 | D 2.37 | A 2.47 | P 1.44 | M 1.96 | K 1.38
S12: P 2.32 | C 1.41 | A 1.87 | T 1.49 | E 2.09 | D 1.34 | V 2.42 | M 1.76 | I 2.18 | Y 1.28 | H 2.29 | G 2.1

Variants of: B2
Experiment: as above
Details: c terminus: native

Protein stability index: each site, then its substitutions
F6: W 2.12 | G 3.75 | T 3.5 | E 4.52 | R 3.06 | N 3.65
E16: N 2.51 | H 1.25 | K 2.46
N9: F 1.98 | Y 1.25 | E 3.08 | Q 1.87 | A 1.7
W13: Q 3.29 | I 3.91 | T 4.2 | D 4.86 | Y 2.96 | R 3.74 | M 3.91 | G 4.27 | K 3.85 | V 3
K14: R 2.43 | A 2.02 | C 2.12 | Y 2.28 | I 2.25 | N 1.92
V3: D 4.2 | F 2.38 | R 2.75 | Y 2.37 | M 2.38 | P 2.63 | N 3.46 | A 3.88
R22: P 3.62 | S 2.92 | N 3.96 | Q 3.02
L19: E 4.05 | F 1.49 | K 3.02 | T 3.84 | M 2.43 | P 3.12 | H 2.98
K5: C 2.52 | V 1.95 | L 2.75 | Y 2.16 | H 1.98
E17: V 1.98 | D 1.75 | F 1.75 | T 1.51 | S 1.13 | A 2.06 | I 2.02 | Q 2.09
G12: C 2.05 | Y 2.57 | F 1.82 | L 3.23 | W 1.88
G7: S 2.67 | V 1.49 | E 2.94 | K 1.9 | H 1.8 | P 2.31 | Y 2.41 | R 2.29
Y4: I 2.12 | P 3.43 | G 2.69 | T 3.06 | V 2.82 | H 3.8 | R 1.23
V18: L 2.08 | W 1.62 | T 2.16 | D 3.45 | S 2.68 | C 2.44
S10: P 2.1 | T 3.02 | Y 1.56 | H 2.56 | N 2.1 | M 1.9
S11: I 1.54 | T 2.83 | F 1.09 | M 1.73 | N 1.89
S21: D 3.56 | M 2.31 | E 3.19 | Y 2.72 | P 3.39 | G 2.26 | A 2.12 | K 2.95
K8: I 2.14 | S 2.44 | N 2.46 | C 2.85 | Y 1.42 | G 2.49 | P 2.25
E15: G 1.76 | C 2.49 | F 3 | H 2.81 | I 1.55
L2: K 2.31 | M 2.99 | A 3.2 | W 1.58 | P 2.66 | V 2.71
Q20: L 2.19 | Y 1.79 | M 2.06 | K 1.25 | C 2.22 | P 2.38
N23: T 2.37 | S 2.51 | M 1.81 | A 2.28 | L 3.28 | V 2.62 | P 3.22
R1: N 3 | E 3.17 | G 2.87 | T 2.18 | Y 1.69 | M 2.4
